Target: H5 GCN4 (IN05 HA, GCN4-trimerized) (Influenza A virus …, UniProt A5A5L7, stabilised)
Assay: negative-stain EM
Conditions: both partners purified

B1: CR9114 Fab (Fab, V domains shown)
VH: QVQLVQSGAEVKKPGSSVKVSCKSSGGTSNNYAISWVRQAPGQGLDWMGGISPIFGSTAYAQKFQGRVTISADIFSNTAYMELNSLTSEDTAVYFCARHGNYYYYSGMDVWGQGTTVTVSS
VL: QSALTQPPAVSGTPGQRVTISCSGSDSNIGRRSVNWYQQFPGTAPKLLIYSNDQRPSVVPDRFSGSKSGTSASLAISGLQSEDEAEYYCAAWDDSLKGAVFGGGTQLTVL
Q: How did the “stoichiometry N” value turn out when B1 was run?
A: 3 Fabs per trimer

Source: article PMC10998906 (NPJ Vaccines, 2024)
